The results in this text go back to paper PMC5389614.

Usually Kd stands for the equilibrium constant for the complex coming apart. Low readings indicate higher affinity, high ones lower affinity.

Residue numbers refer to the chain shown, from its start. Like-named read-outs stand apart in the source and are kept apart here.

For one data set, the target named is T1, AgeI D223A (UniProt Q9KHV6 1-278, D223A).
T1 sequence: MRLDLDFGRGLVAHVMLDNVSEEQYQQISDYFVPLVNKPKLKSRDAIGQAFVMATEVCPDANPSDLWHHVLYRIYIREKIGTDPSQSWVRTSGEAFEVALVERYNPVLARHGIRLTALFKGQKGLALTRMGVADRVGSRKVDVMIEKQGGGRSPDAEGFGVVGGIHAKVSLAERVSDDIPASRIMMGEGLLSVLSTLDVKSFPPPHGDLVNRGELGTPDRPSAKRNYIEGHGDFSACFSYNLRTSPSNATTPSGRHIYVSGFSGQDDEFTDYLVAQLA
As to the kind of experiment: EMSA. In general terms: A gel shift assay detects complexes by their altered migration in electrophoresis.

For the next data set, the target named is T2, AgeI D177A (UniProt Q9KHV6 1-278, D177A).
T2 sequence: T1 sequence with D177A, A223D
As to the kind of experiment: EMSA.

The target in a further data set is T3, AgeI D178A (UniProt Q9KHV6 1-278, D178A).
T3 sequence: T1 sequence with D178A, A223D
Briefly: EMSA.

Data set [1] deals with T4, AgeI wt (UniProt Q9KHV6 1-278).
T4 sequence: T1 sequence with A223D
Briefly: X-ray crystallography.

For data set [2], the target named is T4, AgeI wt. Briefly: X-ray crystallography. This is another data set of the same source.
The target of a further data set is T5, AgeI Q86A (UniProt Q9KHV6 1-278, Q86A).
T5 sequence: T1 sequence with Q86A, A223D
As to the kind of experiment: EMSA.

In the next data set the target is T6, AgeI D142A (UniProt Q9KHV6 1-278, D142A).
T6 sequence: T1 sequence with D142A, A223D
Briefly: EMSA.

Data set [3] concerns the target T4, AgeI wt. Briefly: EMSA.
Another data set concerns the target T7, AgeI S138A (UniProt Q9KHV6 1-278, S138A).
T7 sequence: T1 sequence with S138A, A223D
As to the kind of experiment: EMSA.

B1: NC (non-canonical) (dsDNA)
DNA 1: AGACCCACGCTCACCGGATCCAGATTTATC
DNA 2: GATAAATCTGGATCCGGTGAGCGTGGGTCT
As to B1, the equilibrium dissociation constant (Kd) was approximately 5 nM in the data set with AgeI D223A, 14.7 ± 3.1 nM with AgeI D177A and approximately 5 nM in the data set with AgeI D178A.

B2: SP13 (dsDNA)
DNA 1: TTCGACCGGTCGA
DNA 2: TTCGACCGGTCGA
Regarding B2, in the data set with AgeI wt [1], the binding result was “binds”.

B3: SP11 (dsDNA)
DNA 1: TCGACCGGTCG
DNA 2: TCGACCGGTCG
In the case of B3, in the data set with AgeI wt [2], the binding result is given as “binds”.

B4: SP (specific) (dsDNA)
DNA 1: B1 DNA 1 with A18T
DNA 2: B1 DNA 2 with T13A
In the case of B4, the Kd in the data set with AgeI D223A came to 1.2 ± 0.4 nM; with AgeI Q86A, 4.6 ± 1.4 nM; in the data set with AgeI D177A, 19.5 ± 5.6 nM; in the data set with AgeI D142A, 2.4 ± 0.8 nM; in the data set with AgeI D178A, 1 ± 0.3 nM; with AgeI wt [3], 0.9 ± 0.2 nM. The same molecule gave a dissociation constant Kd with AgeI S138A of 1.2 ± 0.2 nM.
